Measured values: paper PMC9094124

Experiments:
[1] = target: c-JO4 (cGMP-compliant JO4 junction opener protein) (human adenovirus serotype 3); assay: SDS-PAGE, not boiled and not reduced; 4-15% gradient gel, running buffer with 0.1% SDS, 1 ug protein, sample not boiled and not reduced
[2] = target: c-JO4 (cGMP-compliant JO4 junction opener protein) (human adenovirus serotype 3); assay: SEC + other: negative-stain electron microscopy; SEC on Superdex 200 Increase 10/300 in TBS, 1 mL/min; EM with 1% sodium silicotungstate pH 7.0, protein at 0.1 mg/ml

For “c-JO4 (cGMP-compliant JO4 junction opener protein) (domain or fragment)”, the stoichiometry N [1] was 3 and the stoichiometry N [2] was 6.
